Experiment [1] addresses Recombinant Human IL-13 Rα1/Fc Chimera (R&D) (human) (UniProt P78552). Kind of experiment: SPR (BIACORE), same format; rat IgG control, by definition the 0% reference.
Experiment [2] addresses Recombinant Mouse IL-13 Rα1/Fc Chimera (R&D) (mouse) (UniProt O09030). The experiment is described as above.
For experiment [3], the target named is T1, IL13 receptor α1 on TF-1 cells (human, UniProt P78552 22-427).
T1 sequence (looked up): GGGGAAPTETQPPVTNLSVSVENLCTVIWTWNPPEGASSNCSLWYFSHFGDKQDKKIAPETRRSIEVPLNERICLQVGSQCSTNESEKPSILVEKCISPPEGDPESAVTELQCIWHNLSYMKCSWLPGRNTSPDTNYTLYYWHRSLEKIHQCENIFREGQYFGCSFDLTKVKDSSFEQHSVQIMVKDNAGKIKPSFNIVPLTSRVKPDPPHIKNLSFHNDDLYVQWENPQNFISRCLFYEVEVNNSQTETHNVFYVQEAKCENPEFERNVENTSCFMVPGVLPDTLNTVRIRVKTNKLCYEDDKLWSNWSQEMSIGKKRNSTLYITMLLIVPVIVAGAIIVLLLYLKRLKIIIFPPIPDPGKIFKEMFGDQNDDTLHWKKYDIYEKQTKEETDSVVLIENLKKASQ
The experiment is described as follows: cell-based or functional assay.

The target of experiment [4] is T2, human IL13 Rα1-Fc (fusion of the extracellular domain of human IL13 receptor α1 and an Fc fragment of human … (human, UniProt P78552 22-343)).
T2 construct: extracellular domain; also called soluble IL13 receptor α1-Fc; not shown: human IgG1 Fc domain (cDNA from plasmid pM1304, WO97/42319), joined in frame over a HindIII site
T2 sequence (looked up): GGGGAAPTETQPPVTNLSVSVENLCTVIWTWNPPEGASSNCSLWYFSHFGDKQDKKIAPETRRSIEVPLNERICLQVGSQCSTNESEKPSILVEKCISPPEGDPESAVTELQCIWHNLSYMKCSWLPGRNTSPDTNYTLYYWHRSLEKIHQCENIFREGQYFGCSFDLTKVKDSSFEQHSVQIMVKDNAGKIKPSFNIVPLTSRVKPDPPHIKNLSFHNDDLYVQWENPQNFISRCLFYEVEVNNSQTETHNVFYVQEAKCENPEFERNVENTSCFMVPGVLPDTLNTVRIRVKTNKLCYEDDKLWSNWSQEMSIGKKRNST
The experiment is described as follows: SPR (BIACORE), human IL13 Rα1-Fc immobilized on CM5 chip, antibody at 2, 10 and 50 µg/ml. The protocol:
The association constant of the anti-IL13 Rα1 antibody prepared was determined using BIACORE. That is, a CM5 chip (Biacore CO., Ltd.) was activated for 7 minutes according to the manual of Biacore Co., Ltd. and then 100 μg/ml of the human IL13 Rα1-Fc prepared in Example 1 was immobilized thereon. An HBS-EP buffer solution (Biacore Co., Ltd) was flown at a flow rate of 20 μl/min, and then the association constants of four kinds of the antibodies diluted to 2, 10, and 50 μg/ml with the same buffer solution were obtained. The binding antibody was dissociated with a 0.1-M glycine hydrochloric acid buffer solution (pH 3.0) and the chip was then used again. The resulting data was analyzed using analyzing software, BIA evaluation, Biacore Co., Ltd., and the dissociation constant (Kd) thereof was calculated.

Sequence of Recombinant Mouse IL-13 Rα1/Fc Chimera (R&D) (mouse) (O09030 26-340 limits assumed, change not shown): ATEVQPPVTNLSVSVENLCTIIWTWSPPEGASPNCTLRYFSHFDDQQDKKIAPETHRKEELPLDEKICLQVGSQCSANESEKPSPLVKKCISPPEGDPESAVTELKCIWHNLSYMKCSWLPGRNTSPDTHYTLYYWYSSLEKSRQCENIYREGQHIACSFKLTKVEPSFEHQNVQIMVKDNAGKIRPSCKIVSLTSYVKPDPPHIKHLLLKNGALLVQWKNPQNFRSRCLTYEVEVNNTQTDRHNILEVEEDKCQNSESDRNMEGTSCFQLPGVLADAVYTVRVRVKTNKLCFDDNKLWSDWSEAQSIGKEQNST

As for rat IgG (control antibody), in experiment [1], the Human IL13/IL13 R binding inhibition rate (%) worked out at 0%. The Mouse IL13/IL13 R binding inhibition rate (%) in experiment [2] turned out to be 0%.

B1: F997-20-1 antibody (antibody, IgG1, V domains shown)
VH: EVQLQQSGGGLVQPGRSLNLSCAASGFTFNDYYMAWVRQAPKKGLEWVATIIYDGTRTYYRDSVKGRFTISRDNAKSTLYLQMDSLRSEDTATYYCATPWGSWGQGTTVTVSS
VL: DIQMTQSPSSMPASLGERVTISCRASQGISNFLNWYQQKADGTIKPLIYYTSNLQSAVPSRFSGSGSGTDYSLTISSLEPEDFAMYYCQQYDSSPWTFGGGTKLEITR
With B1, in experiment [3], the “IC50 (µg/mL) for cell response with IL 4 (1 ng/mL); TF-1 proliferation” value is greater than 10 µg/mL and the “IC50 (µg/mL) for cell response with IL 13 (1 ng/mL); TF-1 proliferation” value was determined as 1.2 µg/mL. The same molecule came in with a dissociation constant (Kd) in experiment [4] of 1.07 nM.

B2: F997-13-1 antibody (antibody, IgG1, V domains shown)
VH: EVKLQQSGGGLVQPGRSMKLSCAASGFTFSNYGMAWVRQAPKKGLEWVAYISYDGGSTYYRDSVKGRFTISRDNAKSTLYLQMDSLRSEDTATYHCTTPHYGYKYWYFDFWGQGTTVTVSS
VL: DIQMTQSPASLSASLGETVTIECRASEDIYNGLAWYQQKPGKSPQLLIYHANSSHTGVPSRFSGSGSGTQYSLKIDSLQSEDVANYFCQQYYDYPTFGAGTKLELKR
Take B2: in experiment [3], the “IC50 (µg/mL) for cell response with IL 4 (1 ng/mL); TF-1 proliferation” value was greater than 10 µg/mL and the “IC50 (µg/mL) for cell response with IL 13 (1 ng/mL); TF-1 proliferation” value was 6.6 µg/mL. In experiment [4], this molecule yielded a dissociation constant (Kd) of 4.1 nM.
